{"source": "the supplement of paper PMC10126150", "note": "± gives the standard deviation of the averaged measurements.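 Also: ATP exposure 15 min at 22 °C before imaging.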", "data": [{"test_system": "ATP", "test": "switch fluorescence ratio, 500 uM ATP over buffer (Cy3 cluster intensity, sum of 5 cycles each) (fold (ratio)); higher = stronger signal-on switching upon ATP binding; sequences stand for … in TCGTCGGCAGCGTCAGATGTGTATAAGAGACAGTTTTTTTTTTTTTTTTTTTTTTTTT…TC", "conditions": "aptamer strand: ATP DNA aptamer (quencher-CACCTGGGGGAGTATTGCGGAGGAAGG + anchor), 100 nM annealed; ATP concentration: 500 uM", "outline": "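Clusters with intensities outside 100-1000 RFU were excluded. The remaining Cy3-labelled switching-strand clusters on a modified Illumina MiSeq flow-cell had been annealed to 100 nM quencher-labelled ATP aptamer and imaged in selection buffer, then after 15 min with 500 uM ATP at 22 °C, for five cycles separated by NaOH stripping and re-annealing. The fluorescence ratio, averaged per switch-domain sequence, is each cluster's summed target-cycle Cy3 intensity over its summed buffer-cycle Cy3 intensity.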", "values": [{"sequence": "TTGGGTGGTA", "switch fluorescence ratio": "0.988 ± 0.028"}, {"sequence": "TTGGGTGTAG", "switch fluorescence ratio": "1.04 ± 0.025"}, {"sequence": "TTGGGTTTCT", "switch fluorescence ratio": "0.97996 ± 0.00043"}, {"sequence": "TTGGGTTTG", "switch fluorescence ratio": "0.964 ± 0.011"}, {"sequence": "TTGGGTTTTT", "switch fluorescence ratio": "1.04 ± 0.1"}, {"sequence": "TTGGTAATAG", "switch fluorescence ratio": "1.03 ± 0.015"}, {"sequence": "TTGGTAATGT", "switch fluorescence ratio": "1.03 ± 0.016"}, {"sequence": "TTGGTACTTA", "switch fluorescence ratio": "0.995 ± 0.013"}, {"sequence": "TTGGTACTTT", "switch fluorescence ratio": "0.9841 ± 0.0051"}, {"sequence": "TTGGTAGCTA", "switch fluorescence ratio": "0.9889 ± 0.0098"}, {"sequence": "TTGGTAGGGC", "switch fluorescence ratio": "0.97013 ± 0.0006"}, {"sequence": "TTGGTAGGGG", "switch fluorescence ratio": "1.03 ± 0.077"}, {"sequence": "TTGGTAGTCA", "switch fluorescence ratio": "0.992 ± 0.037"}, {"sequence": "TTGGTATAGT", "switch fluorescence ratio": "0.9999 ± 0.0047"}, {"sequence": "TTGGTATGGG", "switch fluorescence ratio": "1.03 ± 0.044"}, {"sequence": "TTGGTCAAAA", "switch fluorescence ratio": "1.022 ± 0.0089"}, {"sequence": "TTGGTCCGGT", "switch fluorescence ratio": "0.988 ± 0.018"}, {"sequence": "TTGGTCCGTC", "switch fluorescence ratio": "1.01 ± 0.047"}, {"sequence": "TTGGTCGGGG", "switch fluorescence ratio": "0.991 ± 0.023"}, {"sequence": "TTGGTCGGTC", "switch fluorescence ratio": "0.985 ± 0.036"}, {"sequence": "TTGGTCTAGA", "switch fluorescence ratio": "1.01 ± 0.054"}, {"sequence": "TTGGTCTTGT", "switch fluorescence ratio": "1.001 ± 0.006"}, {"sequence": "TTGGTGAAGG", "switch fluorescence ratio": "1.01 ± 0.023"}, {"sequence": "TTGGTGAGTT", "switch fluorescence ratio": "0.981 ± 0.029"}, {"sequence": "TTGGTGCCCG", "switch fluorescence ratio": "1.01 ± 0.037"}, {"sequence": "TTGGTGGATC", "switch fluorescence ratio": "1.03 ± 0.03"}, {"sequence": "TTGGTGGTTT", "switch fluorescence ratio": "0.988 ± 0.027"}, {"sequence": "TTGGTGTACT", "switch fluorescence ratio": "1.01 ± 0.019"}, {"sequence": "TTGGTGTGTC", "switch fluorescence ratio": "1.04 ± 0.07"}, {"sequence": "TTGGTGTTGT", "switch fluorescence ratio": "0.989 ± 0.027"}, {"sequence": "TTGGTGTTTT", "switch fluorescence ratio": "1.02 ± 0.03"}, {"sequence": "TTGGTTACTG", "switch fluorescence ratio": "1.03 ± 0.07"}, {"sequence": "TTGGTTATGC", "switch fluorescence ratio": "0.998 ± 0.045"}, {"sequence": "TTGGTTATGT", "switch fluorescence ratio": "0.969 ± 0.017"}, {"sequence": "TTGGTTGAAC", "switch fluorescence ratio": "0.946 ± 0.032"}, {"sequence": "TTGGTTGGAG", "switch fluorescence ratio": "0.996 ± 0.021"}, {"sequence": "TTGGTTGTAT", "switch fluorescence ratio": "1 ± 0.011"}, {"sequence": "TTGGTTGTGG", "switch fluorescence ratio": "0.972 ± 0.018"}, {"sequence": "TTGGTTGTGT", "switch fluorescence ratio": "1.01 ± 0.015"}, {"sequence": "TTGGTTTCTT", "switch fluorescence ratio": "1.01 ± 0.023"}, {"sequence": "TTGGTTTGCG", "switch fluorescence ratio": "0.962 ± 0.017"}, {"sequence": "TTGGTTTGGG", "switch fluorescence ratio": "0.98 ± 0.022"}, {"sequence": "TTGGTTTGTG", "switch fluorescence ratio": "1.01 ± 0.035"}, {"sequence": "TTGGTTTTAG", "switch fluorescence ratio": "1 ± 0.033"}, {"sequence": "TTGGTTTTGA", "switch fluorescence ratio": "0.988 ± 0.042"}, {"sequence": "TTGTAAAA", "switch fluorescence ratio": "0.95579 ± 0.00088"}, {"sequence": "TTGTAAGGTC", "switch fluorescence ratio": "1 ± 0.031"}, {"sequence": "TTGTAAGTGG", "switch fluorescence ratio": "0.97 ± 0.0078"}, {"sequence": "TTGTAATAGT", "switch fluorescence ratio": "1.026 ± 0.00026"}, {"sequence": "TTGTACAA", "switch fluorescence ratio": "0.993 ± 0.017"}, {"sequence": "TTGTAGAGGG", "switch fluorescence ratio": "1.01 ± 0.029"}, {"sequence": "TTGTATAATT", "switch fluorescence ratio": "0.969 ± 0.038"}, {"sequence": "TTGTATAGGG", "switch fluorescence ratio": "1 ± 0.025"}, {"sequence": "TTGTATCAGG", "switch fluorescence ratio": "1 ± 0.02"}, {"sequence": "TTGTATCTTC", "switch fluorescence ratio": "0.993 ± 0.041"}, {"sequence": "TTGTATGAAG", "switch fluorescence ratio": "0.951 ± 0.061"}, {"sequence": "TTGTATGGTT", "switch fluorescence ratio": "1.02 ± 0.019"}, {"sequence": "TTGTATGTTT", "switch fluorescence ratio": "0.98 ± 0.023"}, {"sequence": "TTGTATTAAT", "switch fluorescence ratio": "0.975 ± 0.031"}, {"sequence": "TTGTATTATG", "switch fluorescence ratio": "1.008 ± 0.0095"}, {"sequence": "TTGTATTT", "switch fluorescence ratio": "0.979 ± 0.022"}, {"sequence": "TTGTCACGG", "switch fluorescence ratio": "0.986 ± 0.035"}, {"sequence": "TTGTCCAAAT", "switch fluorescence ratio": "0.986 ± 0.0099"}, {"sequence": "TTGTCCAGGA", "switch fluorescence ratio": "0.977 ± 0.048"}, {"sequence": "TTGTCCCCGG", "switch fluorescence ratio": "1.58 ± 0.68"}, {"sequence": "TTGTCGTATC", "switch fluorescence ratio": "1 ± 0.019"}, {"sequence": "TTGTGAGGGC", "switch fluorescence ratio": "1.02 ± 0.041"}, {"sequence": "TTGTGAGGGT", "switch fluorescence ratio": "0.981 ± 0.033"}, {"sequence": "TTGTGAGGTT", "switch fluorescence ratio": "1.06 ± 0.088"}, {"sequence": "TTGTGATAGT", "switch fluorescence ratio": "1.0025 ± 0.00064"}, {"sequence": "TTGTGATGGC", "switch fluorescence ratio": "1.03 ± 0.11"}, {"sequence": "TTGTGATGTC", "switch fluorescence ratio": "1.031 ± 0.0048"}, {"sequence": "TTGTGCGCGC", "switch fluorescence ratio": "1.022 ± 0.0018"}, {"sequence": "TTGTGGAGCT", "switch fluorescence ratio": "0.999 ± 0.016"}, {"sequence": "TTGTGGATGG", "switch fluorescence ratio": "0.978 ± 0.039"}, {"sequence": "TTGTGGCAAG", "switch fluorescence ratio": "1 ± 0.018"}, {"sequence": "TTGTGGCCGT", "switch fluorescence ratio": "1.039 ± 0.0035"}, {"sequence": "TTGTGGCGCC", "switch fluorescence ratio": "0.958 ± 0.021"}, {"sequence": "TTGTGGGATA", "switch fluorescence ratio": "1.01 ± 0.011"}, {"sequence": "TTGTGGGCAG", "switch fluorescence ratio": "1.03 ± 0.032"}, {"sequence": "TTGTGGGTCG", "switch fluorescence ratio": "0.984 ± 0.031"}, {"sequence": "TTGTGGTTGC", "switch fluorescence ratio": "1.02 ± 0.013"}, {"sequence": "TTGTGGTTGT", "switch fluorescence ratio": "0.966 ± 0.016"}, {"sequence": "TTGTGTAATT", "switch fluorescence ratio": "1.06 ± 0.05"}, {"sequence": "TTGTGTACCG", "switch fluorescence ratio": "0.96 ± 0.048"}, {"sequence": "TTGTGTATCA", "switch fluorescence ratio": "0.993 ± 0.035"}, {"sequence": "TTGTGTTACG", "switch fluorescence ratio": "0.996 ± 0.047"}, {"sequence": "TTGTGTTGG", "switch fluorescence ratio": "1.03 ± 0.019"}, {"sequence": "TTGTTAAAGT", "switch fluorescence ratio": "1 ± 0.038"}, {"sequence": "TTGTTAAATG", "switch fluorescence ratio": "1.02 ± 0.056"}, {"sequence": "TTGTTAATTT", "switch fluorescence ratio": "1.02 ± 0.05"}, {"sequence": "TTGTTACAGA", "switch fluorescence ratio": "1.004 ± 0.0078"}, {"sequence": "TTGTTACTGG", "switch fluorescence ratio": "1.01 ± 0.03"}, {"sequence": "TTGTTAGGCT", "switch fluorescence ratio": "1.03 ± 0.041"}, {"sequence": "TTGTTAGGTG", "switch fluorescence ratio": "1.132 ± 0.0016"}, {"sequence": "TTGTTAGTAT", "switch fluorescence ratio": "0.996 ± 0.021"}, {"sequence": "TTGTTAGTCT", "switch fluorescence ratio": "0.982 ± 0.024"}, {"sequence": "TTGTTAGTGG", "switch fluorescence ratio": "1.01 ± 0.031"}, {"sequence": "TTGTTATAGG", "switch fluorescence ratio": "1.06 ± 0.14"}, {"sequence": "TTGTTCCTTT", "switch fluorescence ratio": "0.9847 ± 0.0076"}]}]}
